Assay results as given in FireProtDB (doi:10.1111/febs.12694).
Values joined by “and” are separate entries in the source; they are usually repeats but may differ in a detail not shown here. Equal values may be shown once.

Conditions: Halobacterium salinarum (strain ATCC 700922 / JCM 11081 / NRC-1), Thermal, transition: 2, whole UniProt chain shown

B1: Bacteriorhodopsin wild type, P02945 (protein)
chain: MLELLPTAVEGVSQAQITGRPEWIWLALGTALMGLGTLYFLVKGMGVSDPDAKKFYAITTLVPAIAFTMYLSMLLGYGLTMVPFGGEQNPIYWARYADWLFTTPLLLLDLALLVDADQGTILALVGADGIMIGTGLVGALTKVYSYRFVWWAISTAAMLYILYVLFFGFTSKAESMRPEVASTFKVLRNVTVVLWSAYPVVWLIGSEGAGIVPLNIETLLFMVLDVSAKVGFGLILLRSRAIFGEAEAPEPSAGDGAAATSD
For B1, the Tm (pH 3.5, DSC) was 76.6 °C, the Tm (pH 4, UV spectroscopy) was 69.2 °C and 67 °C and the Tm (pH 7, DSC) was 98.2 °C. The Tm (pH 7, UV spectroscopy) was 90.5 °C, the Tm (pH 9, DSC) was 94.5 °C and the Tm (pH 9.5, UV spectroscopy, glycine buffer) was 86 °C.
